Source: US20250034594A1, “RNA-GUIDED GENOME RECOMBINEERING AT KILOBASE SCALE” (THE BOARD OF TRUSTEES OF THE LELAND STANFORD JUNIOR …, priority 2021, published 2025)

B1: SSAP_51: SEQ ID NO: 220 (protein)
chain: AENEKQALLQEENKSENVVSTVKRTALATNPFSDTDQFNNIFKMAQLISQSDMIPATYKGKPMNCVIALEQANRMGVSPLMVMQNLYVVKGVPSWSGQGCMMIIQGCGKFRDVDYVYSGEKGTDSRSCKVVATRISDGKRIEGTEITMQMVKSEGWISNTKWKNMPEQMLGYRAATFFARMYCPNELNGFATEGEAEDMNHKPQRIEAINVLGDTAHE
B2: SSAP_234: SEQ ID NO: 403; Cellulosilyticum lentocellum (protein, listed as Cellulosilyticum lentocellum)
chain: SDKKELVLKETHSRLNQLLATKMEAMPKDFNQTRFLQNCMTVLQDTKGIENCHPVSIARTLLKGAFLGLDFFQRECYAIPYGGELQFQTDYKGETKMAKKYSIRDIKDIYAKVVRKGDEFKEEIVAGQQVVDFKPLPFNDAEIIGAFAVVLYQDGGMEYETMSTKQIEGIRDNFSKMKNGLMWTKTPEEAYKKTVLRRLTKKIEKDFASIDQAKAYEESSDMQFKQDEQKQDAKDPFADAVDVEFTEETEGQVRLDGEADGAK
B3: SSAP_315: SEQ ID NO: 484; Pseudoalteromonas spongiae (protein, listed as Pseudoalteromonas spongiae)
chain: NKFQHLQTELSSQLLSTKERFNELNNKNNLKVNFEEEYNFFYHLVTSSFYNINGIATCTFSSLKEAFLNIAKYGLSINPKLNLCYIRTEQSCAQANVNIAVYDFGYKGLLKLITRTGKVKIVTADVFYENDNFEFRGTREPVKHSTKTLSAAARGAMAGGYCSSELVAGGVVTTIMTPEELREIESICQSTGNEAWNSVFIDELRRKTLIKRHWKTLMQVIEEQNLSVPIEETYQCDFANGGY
B4: SSAP_163: SEQ ID NO: 332; Clostridium sp. Marseille-P3244 (protein, listed as Clostridium sp.)
chain: AARATNSVKEELAKKAETKAVGEKKLTRSMSIADLIKAMAPEIKKALPEVITPERFTRMALSALNTTPKLQECTQMSFLAALMNAAQLGLEPNTPLGQAYLIPFNNKGTMECQFQIGYKGLIDLGYRNPQMQIISAQAVYENDEFEYELGLNPKLEHRPALHDRGELRLFYGLFKLVNGGFGFEVMSKEAVDAYAKEYSKSFDSSFSPWKTNYEAMAKKTVIKQALKYAPIKADFRKALSTDETIKNEIAEDMSEIHGEDIFDAEYTEQTA
B5: SSAP_105: SEQ ID NO: 274; unclassified Lysinibacillus (protein, listed as Lysinibacillus sp.)
chain: ATTTDLKAQMQQAPATQQKPKTIDDYLKQMAPAMAQALPKHMDVDRLMRLAMTTIRTTPALKDADVSSLLGAVMQAAQLGLEPGLMGHCYLLPFKNNKKGITEVQFIIGYKGMIDLARRSGHIQSIYAHAVYQKDEFEYELGLDPKLKHKPCMDEDKGNFVGAYAVAHFKDGGYQFEFMSKAEIEKRKGRSKAANSTYSPWATDYEEMAKKTVVRHMWKYLPISVEMQQQVAYDEGTAPKREMKDITPETEFFVDAPEIEVEVVNE

Experiments:
Type in all cases: cell-based
[1] = test system: gene editing with Cas9 and dCas9; test: Screen of 322 new SSAP proteins, activity across all experiments (Cas9 and dCas9, Table 5); parameters: scale not given here
From the text: (§1) 322 new SSAP proteins were identified from sequence data, synthesized, and screened for activity with Cas9 and dCas9. Gene editing activities are shown below in Table 5, followed by amino acid sequences of the proteins.

gene editing with Cas9 = test: Screen of 322 new SSAP proteins, gene editing activity with Cas9 (Table 5); parameters: Cas9 with SSAP activity: scale not given here
From the text: as §1

gene editing with dCas9 = test: Screen of 322 new SSAP proteins, gene editing activity with dCas9 (Table 5); parameters: dCas9 with SSAP activity: scale not given here
From the text: as §1

Molecule | Activity across all experiments [1] | Cas9 with SSAP activity (gene editing with Cas9) | Cas9 with SSAP activity (normalized) (gene editing with Cas9) | dCas9 with SSAP activity (gene editing with dCas9) | dCas9 with SSAP activity (normalized) (gene editing with dCas9)
LambdaBet (MSTALATLAGKLAERVGMDSVDPQELITTLRQTAFKGDASDAQFIALLI) | −3.613 | −4.490 | −0.856 | −2.737 | −0.416
B1 | −1.512 | −0.124 | −0.406 | −2.900 | −0.907
B2 | −1.177 | 0.596 | 1.140 | −2.950 | −0.446
B3 | −2.321 | −1.578 | −0.629 | −3.063 | −2.608
B4 | −0.742 | 1.362 | 1.914 | −2.847 | −0.374
B5 | −1.882 | −0.802 | −0.382 | −2.961 | −0.450
